Reference: publication doi:10.1101/2023.08.19.553944
Where two headings read alike, the source gives them in different places.

Tests used:
Assay in all cases: EMSA
PTBP2 (TnT) = PTBP2 (TnT) (UniProt Q9UKA9 1-531)
5xH-PTBP1 [1] = biological target: T1, 5xH-PTBP1 (UniProt P26599 1-557)
GST-PTBP1 = GST-PTBP1 (UniProt P26599 1-557)
GST-PTBP2 = GST-PTBP2 (UniProt Q9UKA9 1-531)
hnRNP A1 (TnT) = hnRNP A1 (TnT) (UniProt P09651-2 1-320)
GST-hnRNP A1 = GST-hnRNP A1 (UniProt P09651-2 1-320)
5xH-PTBP1 [2] = biological target: T1, 5xH-PTBP1; remark: listed apart in the source

T1 sequence (P26599 whole entry): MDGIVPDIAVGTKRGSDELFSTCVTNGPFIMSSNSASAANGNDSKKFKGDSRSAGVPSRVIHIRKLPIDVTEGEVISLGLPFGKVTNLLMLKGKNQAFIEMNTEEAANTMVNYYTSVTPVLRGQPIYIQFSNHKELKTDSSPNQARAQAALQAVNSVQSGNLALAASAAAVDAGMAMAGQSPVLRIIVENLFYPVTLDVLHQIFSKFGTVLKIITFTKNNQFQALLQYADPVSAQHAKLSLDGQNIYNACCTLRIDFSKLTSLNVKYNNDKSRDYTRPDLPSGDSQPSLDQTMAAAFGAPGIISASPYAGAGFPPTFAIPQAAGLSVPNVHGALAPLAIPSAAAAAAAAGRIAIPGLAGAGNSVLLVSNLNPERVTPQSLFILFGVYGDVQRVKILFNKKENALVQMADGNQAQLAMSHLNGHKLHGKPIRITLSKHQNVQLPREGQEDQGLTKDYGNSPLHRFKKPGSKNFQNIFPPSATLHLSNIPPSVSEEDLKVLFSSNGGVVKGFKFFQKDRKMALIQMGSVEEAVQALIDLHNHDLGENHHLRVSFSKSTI
GST-PTBP1, sequence (P26599 whole entry): as above
PTBP2 (TnT), sequence (Q9UKA9 whole entry): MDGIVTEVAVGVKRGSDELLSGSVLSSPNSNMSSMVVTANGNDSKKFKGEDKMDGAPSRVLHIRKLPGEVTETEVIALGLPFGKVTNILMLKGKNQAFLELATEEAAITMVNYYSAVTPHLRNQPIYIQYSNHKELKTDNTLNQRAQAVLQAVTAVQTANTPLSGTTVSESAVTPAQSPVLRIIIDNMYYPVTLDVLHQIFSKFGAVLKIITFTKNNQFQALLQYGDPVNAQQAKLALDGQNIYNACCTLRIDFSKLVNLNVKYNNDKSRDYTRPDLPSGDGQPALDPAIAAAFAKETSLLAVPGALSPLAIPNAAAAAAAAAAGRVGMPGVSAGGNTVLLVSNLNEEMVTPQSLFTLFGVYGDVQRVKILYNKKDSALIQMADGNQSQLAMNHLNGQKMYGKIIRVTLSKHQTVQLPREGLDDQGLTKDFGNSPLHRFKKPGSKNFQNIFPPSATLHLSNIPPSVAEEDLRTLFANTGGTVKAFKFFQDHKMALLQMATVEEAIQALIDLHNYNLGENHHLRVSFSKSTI
GST-PTBP2, sequence (Q9UKA9 whole entry): as above

| Binder | binding result (PTBP2 (TnT)) | binding result (5xH-PTBP1 [1]) | binding result (GST-PTBP1) | binding result (GST-PTBP2) | binding result (hnRNP A1 (TnT)) | binding result (GST-hnRNP A1) | binding result (5xH-PTBP1 [2]) |
| --- | --- | --- | --- | --- | --- | --- | --- |
| U7/SPL (structured_RNA) RNA: CAGUGUUACAGCUCUUUUAGAAUUUUUGGAGUAGGCUUUCUGGCUUUUUACCGGAAAGCCCCUCUUAUG | no binding | binds | binds | – | – | – | – |
| U7/2xMut (structured_RNA) RNA: CAGUGUUACAGGAGAUUUAGAAUUUUUGGAGUAGGCUUUCUGGCUUUUUACCGGAAAGCCCCUCUUAUG | – | – | – | no binding | binds | – | – |
| U7/2xGA (structured_RNA) RNA: CAGUGUUACAGCUCUUUUGAAAUUUGUCUGAUAGGCUUUCUGGCUUUUUACCGGAAAGCCCCUCUUAUG | – | – | – | – | no binding | no binding | binds |
| U7/PU (structured_RNA) RNA: CAGUGUUACAGGAGAUUUAGAAUUUGUCUAGUAGGCUUUCUGGCUUUUUACCGGAAAGCCCCUCUUAUG | – | binds | binds | – | – | – | – |
